Results from paper PMC11210195 (2024).

Legend:
mAb1 WT-AAA = mAb1 WT-AAA (human, UniProt P01857 = IgG part); test: SPR
[1] = biological target: mAb1 WT (human IgG1 Fc WT) (human, UniProt P01857 = IgG part); test: SPR

- koff (mAb1 WT-AAA): 0.105 s⁻¹
- koff [1]: 0.0994 s⁻¹
B1: TRIM21 PRYSPRY domain (domain or fragment)
chain: GLKKMLRTCAVHITLDPDTANPWLILSEDRRQVRLGDTQQSIPGNEERFDSYPMVLGAQHFHSGKHYWEVDVTGKEAWDLGVCRDSVRRKGHFLLSSKSGFWTIWLWNKQKYEAGTYPQTPLHLQVPPCQVGIFLDYEAGMVSFYNITDHGSLIYSFSECAFTGPLRPFFSPGFNDGGKNTAPLTLCPLNIGSQGSTDY
modifications: biotinylated where it was captured via monovalent streptavidin
